# Test results reported in patent US20160272693A1 (ZEALAND PHARMA A S, published 2016).
# *1 amine or outer side, *2 acyl side, *3 side chain or, on linkers, in order; H or OH if unused. Bridges are numbered along the chain shown (N, C = ends). [ ]: non-standard residue; d: D form. The star is where a group is joined. C20 diacid = O=C(O)CCCCCCCCCCCCCCCCCCC(=O)*; γGlu = O=C(O)[C@H](CCC(=O)[*:2])N[*:1]; Hyp = O=C(O)[C@@H]1C[C@@H](O)CN1; NMeI = CC[C@H](C)[C@H](NC)C(=O)O; Aad = N[C@@H](CCCC(=O)O)C(=O)O; Sar = CNCC(=O)O
# T1: human amylin receptor 3 (hAMYR3), hCTR2 co-expressed with human receptor activity modifying protein 3 (hRAMP3) (human, UniProt P30988 25-474; O60896 24-148)
# T1 sequence (looked up) 1: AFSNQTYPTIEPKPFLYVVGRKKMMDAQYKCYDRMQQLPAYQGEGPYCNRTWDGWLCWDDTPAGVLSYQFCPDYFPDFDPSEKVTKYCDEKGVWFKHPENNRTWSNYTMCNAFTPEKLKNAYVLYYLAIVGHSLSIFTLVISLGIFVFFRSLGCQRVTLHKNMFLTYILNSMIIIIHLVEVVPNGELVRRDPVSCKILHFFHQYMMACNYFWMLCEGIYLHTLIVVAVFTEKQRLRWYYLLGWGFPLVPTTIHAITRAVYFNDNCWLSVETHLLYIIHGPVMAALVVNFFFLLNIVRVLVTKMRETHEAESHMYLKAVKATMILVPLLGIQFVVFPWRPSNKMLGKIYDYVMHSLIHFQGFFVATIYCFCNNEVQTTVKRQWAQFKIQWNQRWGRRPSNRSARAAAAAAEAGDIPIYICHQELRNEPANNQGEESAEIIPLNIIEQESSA
# T1 sequence (looked up) 2: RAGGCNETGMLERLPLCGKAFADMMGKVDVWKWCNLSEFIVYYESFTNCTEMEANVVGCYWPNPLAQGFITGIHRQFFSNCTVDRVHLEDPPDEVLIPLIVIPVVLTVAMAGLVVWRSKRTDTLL
# B1: [19CD]-isoGlu-R-C( )-NTAT-C( )-ATQRLADFLQRSSF-Gly(Me)-A-Ile(Me)-LSSTEVGSTT-Hyp-NH2 (Compd. 83) (peptide)
# peptide: {C20 diacid-γGlu}-RCNTATCATQRLADFLQRSSF[Sar]A[NMeI]LSSTEVGSTT[Hyp]-NH2
# modifications: disulfide 2-7
# SMILES: CC[C@H](C)[C@@H](C(=O)N[C@@H](CC(C)C)C(=O)N[C@@H](CO)C(=O)N[C@@H](CO)C(=O)N[C@H](C(=O)N[C@@H](CCC(=O)O)C(=O)N[C@H](C(=O)NCC(=O)N[C@@H](CO)C(=O)N[C@H](C(=O)N[C@H](C(=O)N1C[C@H](O)C[C@H]1C(N)=O)[C@@H](C)O)[C@@H](C)O)C(C)C)[C@@H](C)O)N(C)C(=O)[C@H](C)NC(=O)CN(C)C(=O)[C@H](Cc1ccccc1)NC(=O)[C@H](CO)NC(=O)[C@H](CO)NC(=O)[C@H](CCCNC(=N)N)NC(=O)[C@H](CCC(N)=O)NC(=O)[C@H](CC(C)C)NC(=O)[C@H](Cc1ccccc1)NC(=O)[C@H](CC(=O)O)NC(=O)[C@H](C)NC(=O)[C@H](CC(C)C)NC(=O)[C@H](CCCNC(=N)N)NC(=O)[C@H](CCC(N)=O)NC(=O)[C@@H](NC(=O)[C@H](C)NC(=O)[C@@H]1CSSC[C@H](NC(=O)[C@H](CCCNC(=N)N)NC(=O)CC[C@H](NC(=O)CCCCCCCCCCCCCCCCCCC(=O)O)C(=O)O)C(=O)N[C@@H](CC(N)=O)C(=O)N[C@@H]([C@@H](C)O)C(=O)N[C@@H](C)C(=O)N[C@@H]([C@@H](C)O)C(=O)N1)[C@@H](C)O
# B2: [19CD]-isoGlu-R-C( )-NTAT-C( )-ATQRLAHFLERSSF-Gly(Me)-A-Ile(Me)-LSSTEVGSSTP-NH2 (Compd. 84) (peptide)
# peptide: {C20 diacid-γGlu}-RCNTATCATQRLAHFLERSSF[Sar]A[NMeI]LSSTEVGSSTP-NH2
# modifications: disulfide 2-7
# SMILES: CC[C@H](C)[C@@H](C(=O)N[C@@H](CC(C)C)C(=O)N[C@@H](CO)C(=O)N[C@@H](CO)C(=O)N[C@H](C(=O)N[C@@H](CCC(=O)O)C(=O)N[C@H](C(=O)NCC(=O)N[C@@H](CO)C(=O)N[C@@H](CO)C(=O)N[C@H](C(=O)N1CCC[C@H]1C(N)=O)[C@@H](C)O)C(C)C)[C@@H](C)O)N(C)C(=O)[C@H](C)NC(=O)CN(C)C(=O)[C@H](Cc1ccccc1)NC(=O)[C@H](CO)NC(=O)[C@H](CO)NC(=O)[C@H](CCCNC(=N)N)NC(=O)[C@H](CCC(=O)O)NC(=O)[C@H](CC(C)C)NC(=O)[C@H](Cc1ccccc1)NC(=O)[C@H](Cc1c[nH]cn1)NC(=O)[C@H](C)NC(=O)[C@H](CC(C)C)NC(=O)[C@H](CCCNC(=N)N)NC(=O)[C@H](CCC(N)=O)NC(=O)[C@@H](NC(=O)[C@H](C)NC(=O)[C@@H]1CSSC[C@H](NC(=O)[C@H](CCCNC(=N)N)NC(=O)CC[C@H](NC(=O)CCCCCCCCCCCCCCCCCCC(=O)O)C(=O)O)C(=O)N[C@@H](CC(N)=O)C(=O)N[C@@H]([C@@H](C)O)C(=O)N[C@@H](C)C(=O)N[C@@H]([C@@H](C)O)C(=O)N1)[C@@H](C)O
# B3: [19CD]-isoGlu-R-C( )-NTAT-C( )-ATQRLAHFLQRSSF-Gly(Me)-A-Ile(Me)-LSSTEVGSSTP-NH2 (Compd. 85) (peptide)
# peptide: {C20 diacid}-[γGlu]RCNTATCATQRLAHFLQRSSF[Sar]A[NMeI]LSSTEVGSSTP-NH2
# modifications: disulfide 3-8
# SMILES: CC[C@H](C)[C@@H](C(=O)N[C@@H](CC(C)C)C(=O)N[C@@H](CO)C(=O)N[C@@H](CO)C(=O)N[C@H](C(=O)N[C@@H](CCC(=O)O)C(=O)N[C@H](C(=O)NCC(=O)N[C@@H](CO)C(=O)N[C@@H](CO)C(=O)N[C@H](C(=O)N1CCC[C@H]1C(N)=O)[C@@H](C)O)C(C)C)[C@@H](C)O)N(C)C(=O)[C@H](C)NC(=O)CN(C)C(=O)[C@H](Cc1ccccc1)NC(=O)[C@H](CO)NC(=O)[C@H](CO)NC(=O)[C@H](CCCNC(=N)N)NC(=O)[C@H](CCC(N)=O)NC(=O)[C@H](CC(C)C)NC(=O)[C@H](Cc1ccccc1)NC(=O)[C@H](Cc1c[nH]cn1)NC(=O)[C@H](C)NC(=O)[C@H](CC(C)C)NC(=O)[C@H](CCCNC(=N)N)NC(=O)[C@H](CCC(N)=O)NC(=O)[C@@H](NC(=O)[C@H](C)NC(=O)[C@@H]1CSSC[C@H](NC(=O)[C@H](CCCNC(=N)N)NC(=O)CC[C@H](NC(=O)CCCCCCCCCCCCCCCCCCC(=O)O)C(=O)O)C(=O)N[C@@H](CC(N)=O)C(=O)N[C@@H]([C@@H](C)O)C(=O)N[C@@H](C)C(=O)N[C@@H]([C@@H](C)O)C(=O)N1)[C@@H](C)O
# B4: [19CD]-isoGlu-R-C( )-NTAT-C( )-ATQRLA-Aad-FLQRSSF-Gly(Me)-A-Ile(Me)-LSSTEVGSNT-Hyp-NH2 (Compd. 86) (peptide)
# peptide: {C20 diacid-γGlu}-RCNTATCATQRLA[Aad]FLQRSSF[Sar]A[NMeI]LSSTEVGSNT[Hyp]-NH2
# modifications: disulfide 2-7
# SMILES: CC[C@H](C)[C@@H](C(=O)N[C@@H](CC(C)C)C(=O)N[C@@H](CO)C(=O)N[C@@H](CO)C(=O)N[C@H](C(=O)N[C@@H](CCC(=O)O)C(=O)N[C@H](C(=O)NCC(=O)N[C@@H](CO)C(=O)N[C@@H](CC(N)=O)C(=O)N[C@H](C(=O)N1C[C@H](O)C[C@H]1C(N)=O)[C@@H](C)O)C(C)C)[C@@H](C)O)N(C)C(=O)[C@H](C)NC(=O)CN(C)C(=O)[C@H](Cc1ccccc1)NC(=O)[C@H](CO)NC(=O)[C@H](CO)NC(=O)[C@H](CCCNC(=N)N)NC(=O)[C@H](CCC(N)=O)NC(=O)[C@H](CC(C)C)NC(=O)[C@H](Cc1ccccc1)NC(=O)[C@H](CCCC(=O)O)NC(=O)[C@H](C)NC(=O)[C@H](CC(C)C)NC(=O)[C@H](CCCNC(=N)N)NC(=O)[C@H](CCC(N)=O)NC(=O)[C@@H](NC(=O)[C@H](C)NC(=O)[C@@H]1CSSC[C@H](NC(=O)[C@H](CCCNC(=N)N)NC(=O)CC[C@H](NC(=O)CCCCCCCCCCCCCCCCCCC(=O)O)C(=O)O)C(=O)N[C@@H](CC(N)=O)C(=O)N[C@@H]([C@@H](C)O)C(=O)N[C@@H](C)C(=O)N[C@@H]([C@@H](C)O)C(=O)N1)[C@@H](C)O
# B5: [19CD]-isoGlu-R-C( )-NTAT-C( )-ATQRLA-Aad-FLQRSSF-Gly(Me)-A-Ile(Me)-LSSTEVGSST-Hyp-NH2 (Compd. 87) (peptide)
# peptide: {C20 diacid-γGlu}-RCNTATCATQRLA[Aad]FLQRSSF[Sar]A[NMeI]LSSTEVGSST[Hyp]-NH2
# modifications: disulfide 2-7
# SMILES: CC[C@H](C)[C@@H](C(=O)N[C@@H](CC(C)C)C(=O)N[C@@H](CO)C(=O)N[C@@H](CO)C(=O)N[C@H](C(=O)N[C@@H](CCC(=O)O)C(=O)N[C@H](C(=O)NCC(=O)N[C@@H](CO)C(=O)N[C@@H](CO)C(=O)N[C@H](C(=O)N1C[C@H](O)C[C@H]1C(N)=O)[C@@H](C)O)C(C)C)[C@@H](C)O)N(C)C(=O)[C@H](C)NC(=O)CN(C)C(=O)[C@H](Cc1ccccc1)NC(=O)[C@H](CO)NC(=O)[C@H](CO)NC(=O)[C@H](CCCNC(=N)N)NC(=O)[C@H](CCC(N)=O)NC(=O)[C@H](CC(C)C)NC(=O)[C@H](Cc1ccccc1)NC(=O)[C@H](CCCC(=O)O)NC(=O)[C@H](C)NC(=O)[C@H](CC(C)C)NC(=O)[C@H](CCCNC(=N)N)NC(=O)[C@H](CCC(N)=O)NC(=O)[C@@H](NC(=O)[C@H](C)NC(=O)[C@@H]1CSSC[C@H](NC(=O)[C@H](CCCNC(=N)N)NC(=O)CC[C@H](NC(=O)CCCCCCCCCCCCCCCCCCC(=O)O)C(=O)O)C(=O)N[C@@H](CC(N)=O)C(=O)N[C@@H]([C@@H](C)O)C(=O)N[C@@H](C)C(=O)N[C@@H]([C@@H](C)O)C(=O)N1)[C@@H](C)O
# B6: [19CD]-isoGlu-R-C( )-QTAT-C( )-ATDRLAHFLQRSSF-Gly(Me)-A-Ile(Me)-LSSTEVGSGT-Hyp-NH2 (Compd. 91) (peptide)
# peptide: {C20 diacid}-[γGlu]RCQTATCATDRLAHFLQRSSF[Sar]A[NMeI]LSSTEVGSGT[Hyp]-NH2
# modifications: disulfide 3-8
# SMILES: CC[C@H](C)[C@@H](C(=O)N[C@@H](CC(C)C)C(=O)N[C@@H](CO)C(=O)N[C@@H](CO)C(=O)N[C@H](C(=O)N[C@@H](CCC(=O)O)C(=O)N[C@H](C(=O)NCC(=O)N[C@@H](CO)C(=O)NCC(=O)N[C@H](C(=O)N1C[C@H](O)C[C@H]1C(N)=O)[C@@H](C)O)C(C)C)[C@@H](C)O)N(C)C(=O)[C@H](C)NC(=O)CN(C)C(=O)[C@H](Cc1ccccc1)NC(=O)[C@H](CO)NC(=O)[C@H](CO)NC(=O)[C@H](CCCNC(=N)N)NC(=O)[C@H](CCC(N)=O)NC(=O)[C@H](CC(C)C)NC(=O)[C@H](Cc1ccccc1)NC(=O)[C@H](Cc1c[nH]cn1)NC(=O)[C@H](C)NC(=O)[C@H](CC(C)C)NC(=O)[C@H](CCCNC(=N)N)NC(=O)[C@H](CC(=O)O)NC(=O)[C@@H](NC(=O)[C@H](C)NC(=O)[C@@H]1CSSC[C@H](NC(=O)[C@H](CCCNC(=N)N)NC(=O)CC[C@H](NC(=O)CCCCCCCCCCCCCCCCCCC(=O)O)C(=O)O)C(=O)N[C@@H](CCC(N)=O)C(=O)N[C@@H]([C@@H](C)O)C(=O)N[C@@H](C)C(=O)N[C@@H]([C@@H](C)O)C(=O)N1)[C@@H](C)O
# Target: T1, human amylin receptor 3 (hAMYR3), hCTR2 …
# Test: cell-based or functional assay
row,Binder,hAMYR3 EC50 (nM); cAMP induction
1,B1,0.32 nM
2,B2,0.54 nM
3,B3,0.14 nM
4,B4,0.15 nM
5,B5,0.13 nM
6,{C20 diacid-γGlu}-RCQTATCATERLAHFLQRSSF[Sar]A[NMeI]LSSTEVGSGT[Hyp]-NH2 (disulfide 2-7) [[19CD]-isoGlu-R-C( )-QTAT-C( )-ATERLAHFLQRSSF-Gly(Me)-A-Ile(Me)-LSSTEVGSGT-Hyp-NH2 (Compd. 90)],0.24 nM
7,{C20 diacid}-[γGlu]RCGTATCATERLAHFLTRSSF[Sar]A[NMeI]LSSTEVGSST[Hyp]-NH2 (disulfide 3-8) [[19CD]-isoGlu-R-C( )-GTAT-C( )-ATERLAHFLTRSSF-Gly(Me)-A-Ile(Me)-LSSTEVGSST-Hyp-NH2 (Compd. 9)],0.29 nM
8,B6,0.17 nM
